Test [1] has as its target T1, Human IL-2 (Humanzyme, HumanKine IL-2) (human, UniProt P60568 21-153).
T1 construct: Bought; also called hIL-2
The test is described as follows: SPR (Biacore T200), antibody captured, human IL-2 injected.

The target of test [2] is T2, mouse IL-2 (Peprotech #212-12) (mouse, UniProt P04351 21-169).
T2 construct: Bought
T2 sequence (looked up): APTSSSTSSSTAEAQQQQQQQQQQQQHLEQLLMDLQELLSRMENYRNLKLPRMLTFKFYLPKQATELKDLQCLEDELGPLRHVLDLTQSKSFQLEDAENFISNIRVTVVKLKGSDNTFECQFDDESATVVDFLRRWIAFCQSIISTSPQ
The test can be described thus: told in Example 10; method not named there (SPR in Example 4).

T1 sequence (P60568 21-153 limits assumed): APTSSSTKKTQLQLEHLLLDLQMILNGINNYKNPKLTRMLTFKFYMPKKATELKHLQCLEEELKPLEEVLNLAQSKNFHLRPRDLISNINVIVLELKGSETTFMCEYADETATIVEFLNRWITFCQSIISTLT

B1: 16B2 (antibody, IgG1, V domains shown)
VH: QVQLVQSGAEVKKPGASVKVSCKASGYTFTSYGISWVRQAPGQGLEWMGWISAYNGNTNYAQKLQGRVTMTTDTSTSTAYMELRSLRSDDTAVYYCAREGAIYYDSSGYYFPFDYWGQGTLVTVSS
VL: SYELTQPPSVSVSPGQTARITCSGDALPRKFAYWYQQKSGQAPVMVIYGDSKRPPGIPERFSGSSSGTMATLTITGAQVEDEADYYCYSTDSGGDVSVFGGGTKLTVL
notes: also called mAb 16B2
Consider B1, for which the binding result in test [1] and in test [2] was “binds” each time.

B2: 24E7 (antibody, IgG1, V domains shown)
VH: QVQLVQSGAEVKKPGESLKISCKGSGYSFTSYWIGWVRQMPGKGLEWMGIIYPGDSDTRYSPSFQGQVTISADKSISTAYLQWSSLKASDTAMYYCARETLAAVGSNYYYYGMDVWGQGTTVTVSS
VL: SYELTQPPSVSVSPGQTARITCSGDALPRKYAYWYQQKSGQAPVLVIYEDSKRPSGIPERFSGSSSGTMATLTISGAQVEDEADYYCYSTDRSGNFWVFGGGTKVTVL
notes: also called mAb 24E7
Take B2: the binding result in test [1] and in test [2] was “binds” in each case.

Values taken from patent WO2015109212A1 (dated 2015).
